Measurements: patent US10239923B2, “Specific amyloid beta binding peptides and the use of same for treating and diagnosing alzheimer's dementia” (Forschungszentrum Juelich GmbH, priority 2015, dated 2019)
Square brackets hold non-standard residues; d marks the D form.

Target: T1, Aβ1-42 monomers versus Aβ1-42 oligomers and fibrils (biotinylated, D-enantiomeric, immobilized) (Homo sapiens, UniProt P05067)
T1 construct: biotinylated, D-enantiomeric Aβ1-42 monomers
Assay: Monoclonal phage ELISA
Assay type: binding
Details: individual phage clones; species immobilized at 320 nM; absorption at 450 nm normalized with 6E10 control; higher = more monomer-specific
Description: The specificity of the peptide results from the difference in % of the absorption values for the target molecule or the bait (for example A beta monomer) and the normalized absorption values for the competitors (for example A beta oligomers and fibrils) in the monoclonal phage ELISA.
The absorption values then constitute the affinity of individual phage clones for a particular immobilized A beta species. Here, the specificity is not dependent on the strength of the affinity, but instead only on the difference of the affinities between the species. […] The terms “competitors” and “target molecule” or “bait” are defined as specified below.
A method for normalizing the obtained values should therefore be performed. From all absorption values of the individual phage clone in the monoclonal phage ELISA, the values of the phage antibodies tested for cross-reaction can be used as background. This occurs in accordance with the previously immobilized species. The signal values of the phage antibody from the reaction trays with immobilized Aβ1-42 oligomers for this purpose can be removed from the signal values of the individual phage clone from the reaction trays with immobilized Aβ1-42 oligomers. A similar process is then carried out for Aβ1-42 monomers. In this way, a possible background signal of the phage antibody can initially be calculated from the signals of the individual phage clone. […] Only in this way is an equal interpretation of the results particularly in respect of the assessment of the specificity of the individual phage clone possible (see FIG. 2).
The affinity of individual phage clones with respect to the target molecule and the competitors was examined by means of ELISA. For this purpose, all three species were immobilized in biotinylated form on a polystyrene surface at streptavidin bound thereon. Since, during the panning rounds, oligomers and fibrils were added at the same time as competitors, these two species were immobilized in the monoclonal phage ELISA, likewise mixed. […] The streptavidin-coated microtiter plates were pre-washed as specified by the manufacturer. […] For immobilization, 100 μl were used per reaction tray and were incubated for 15 minutes at room temperature. After having washed the entire plate(s) twice with 150 μl 1×TBS per reaction tray, a blocking step with 150 μl 1×TBS/0.1% (v/v) Tween-20/1% (w/v) BSA was performed for an hour at room temperature. Three washing steps with 150 μl 1×TBS/0.1% (v/v) Tween-20 then followed per reaction tray. The amplified individual phage clones were mixed 1:1 with 1× TBS/1% (w/v) BSA. The antibody 6E10 was diluted 1:10,000 in 1×TBS/0.1% (v/v) Tween-20. […] After washing five times with 150 μl 1×TBS/0.1% (v/v) Tween-20 per reaction tray, 200 μl 1×TBS/0.1% (v/v) Tween-20 were placed in each reaction tray, and the plate(s) incubated for one hour at room temperature. The solutions were removed and replaced as follows: In all reaction trays that had been incubated previously with individual phage clone dilutions or the batch without phages, 100 μl of a phage antibody diluted 1:5,000 in 1×TBS/0.1% (v/v) Tween-20 were now added. The enzyme horseradish peroxidase (HRP) was coupled to this antibody and later served for the conversion of a substrate (TMB). […] At the same time, 100 μl of a second antibody diluted 1:1,000 in 1×TBS/0.1% (v/v) Tween-20 were now added to all reaction trays that had been previously incubated with the dilution of the 6E10 antibody, said second antibody being able to identify and bind to the 6E10 antibody originating from mice. This antibody is also HRP-coupled and thus allows a quantification of the binding of the first antibody to the immobilized target molecules or the plastics surface of the reaction tray. After one hour of incubation at room temperature, the plate(s) was/were washed 10 times with 150 μl 1×TBS/0.1% (v/v) Tween-20 per reaction tray. The signal was detected by adding the substrate 3,3′,5,5′-tetramethylbenzidine (TMB). […]

T1 sequence (P05067 672-713): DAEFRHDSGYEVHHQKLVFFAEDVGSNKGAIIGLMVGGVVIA

In order of falling “Difference in signal strength between Aβ1-42 monomers (100%) and Aβ1-42 oligomers and fibrils” value:
1. HTWTHWFSWNVP (H-[dH][dT][dW][dT][dH][dW][dF][dS][dW][dN][dV][dP]-NH2; SMILES CC(C)[C@@H](NC(=O)[C@@H](CC(N)=O)NC(=O)[C@@H](Cc1c[nH]c2ccccc12)NC(=O)[C@@H](CO)NC(=O)[C@@H](Cc1ccccc1)NC(=O)[C@@H](Cc1c[nH]c2ccccc12)NC(=O)[C@@H](Cc1c[nH]cn1)NC(=O)[C@H](NC(=O)[C@@H](Cc1c[nH]c2ccccc12)NC(=O)[C@H](NC(=O)[C@H](N)Cc1c[nH]cn1)[C@H](C)O)[C@H](C)O)C(=O)N1CCC[C@@H]1C(N)=O) [Mosd10]  71.902%
2. HFWSWTSLSMTR (H-[dH][dF][dW][dS][dW][dT][dS][dL][dS][dM][dT][dR]-NH2; SMILES CSCC[C@@H](NC(=O)[C@@H](CO)NC(=O)[C@@H](CC(C)C)NC(=O)[C@@H](CO)NC(=O)[C@H](NC(=O)[C@@H](Cc1c[nH]c2ccccc12)NC(=O)[C@@H](CO)NC(=O)[C@@H](Cc1c[nH]c2ccccc12)NC(=O)[C@@H](Cc1ccccc1)NC(=O)[C@H](N)Cc1c[nH]cn1)[C@H](C)O)C(=O)N[C@@H](C(=O)N[C@H](CCCNC(=N)N)C(N)=O)[C@H](C)O) [Mosd8]  68.616%
3. HLSWYWEKYLTS (H-[dH][dL][dS][dW][dY][dW][dE][dK][dY][dL][dT][dS]-NH2; SMILES CC(C)C[C@@H](NC(=O)[C@H](N)Cc1c[nH]cn1)C(=O)N[C@H](CO)C(=O)N[C@H](Cc1c[nH]c2ccccc12)C(=O)N[C@H](Cc1ccc(O)cc1)C(=O)N[C@H](Cc1c[nH]c2ccccc12)C(=O)N[C@H](CCC(=O)O)C(=O)N[C@H](CCCCN)C(=O)N[C@H](Cc1ccc(O)cc1)C(=O)N[C@H](CC(C)C)C(=O)N[C@@H](C(=O)N[C@H](CO)C(N)=O)[C@H](C)O) [Mosd9]  68.016%
4. STLHFYTAFLNK (H-[dS][dT][dL][dH][dF][dY][dT][dA][dF][dL][dN][dK]-NH2; SMILES CC(C)C[C@@H](NC(=O)[C@@H](Cc1ccccc1)NC(=O)[C@@H](C)NC(=O)[C@H](NC(=O)[C@@H](Cc1ccc(O)cc1)NC(=O)[C@@H](Cc1ccccc1)NC(=O)[C@@H](Cc1c[nH]cn1)NC(=O)[C@@H](CC(C)C)NC(=O)[C@H](NC(=O)[C@H](N)CO)[C@H](C)O)[C@H](C)O)C(=O)N[C@H](CC(N)=O)C(=O)N[C@H](CCCCN)C(N)=O) [Mosd6]  67.981%
5. HNWSWEWWYNPN (H-[dH][dN][dW][dS][dW][dE][dW][dW][dY][dN][dP][dN]-NH2; SMILES NC(=O)C[C@@H](NC(=O)[C@H]1CCCN1C(=O)[C@@H](CC(N)=O)NC(=O)[C@@H](Cc1ccc(O)cc1)NC(=O)[C@@H](Cc1c[nH]c2ccccc12)NC(=O)[C@@H](Cc1c[nH]c2ccccc12)NC(=O)[C@@H](CCC(=O)O)NC(=O)[C@@H](Cc1c[nH]c2ccccc12)NC(=O)[C@@H](CO)NC(=O)[C@@H](Cc1c[nH]c2ccccc12)NC(=O)[C@@H](CC(N)=O)NC(=O)[C@H](N)Cc1c[nH]cn1)C(N)=O) [Mosd5]  62.729%
6. VHWDFRQWWQQS (H-[dV][dH][dW][dD][dF][dR][dQ][dW][dW][dQ][dQ][dS]-NH2; SMILES CC(C)[C@@H](N)C(=O)N[C@H](Cc1c[nH]cn1)C(=O)N[C@H](Cc1c[nH]c2ccccc12)C(=O)N[C@H](CC(=O)O)C(=O)N[C@H](Cc1ccccc1)C(=O)N[C@H](CCCNC(=N)N)C(=O)N[C@H](CCC(N)=O)C(=O)N[C@H](Cc1c[nH]c2ccccc12)C(=O)N[C@H](Cc1c[nH]c2ccccc12)C(=O)N[C@H](CCC(N)=O)C(=O)N[C@H](CCC(N)=O)C(=O)N[C@H](CO)C(N)=O) [Mosd12]  59.012%
7. FSHSHHTWFTWN (H-[dF][dS][dH][dS][dH][dH][dT][dW][dF][dT][dW][dN]-NH2; SMILES C[C@H](O)[C@@H](NC(=O)[C@@H](Cc1ccccc1)NC(=O)[C@@H](Cc1c[nH]c2ccccc12)NC(=O)[C@H](NC(=O)[C@@H](Cc1c[nH]cn1)NC(=O)[C@@H](Cc1c[nH]cn1)NC(=O)[C@@H](CO)NC(=O)[C@@H](Cc1c[nH]cn1)NC(=O)[C@@H](CO)NC(=O)[C@H](N)Cc1ccccc1)[C@H](C)O)C(=O)N[C@H](Cc1c[nH]c2ccccc12)C(=O)N[C@H](CC(N)=O)C(N)=O) [Mosd7]  57.960%
8. YSFHFEMNMGNY (H-[dY][dS][dF][dH][dF][dE][dM][dN][dM]G[dN][dY]-NH2; SMILES CSCC[C@@H](NC(=O)[C@@H](CC(N)=O)NC(=O)[C@@H](CCSC)NC(=O)[C@@H](CCC(=O)O)NC(=O)[C@@H](Cc1ccccc1)NC(=O)[C@@H](Cc1c[nH]cn1)NC(=O)[C@@H](Cc1ccccc1)NC(=O)[C@@H](CO)NC(=O)[C@H](N)Cc1ccc(O)cc1)C(=O)NCC(=O)N[C@H](CC(N)=O)C(=O)N[C@H](Cc1ccc(O)cc1)C(N)=O) [Mosd13]  57.246%
9. EHWDFGQWWQQS (H-[dE][dH][dW][dD][dF]G[dQ][dW][dW][dQ][dQ][dS]-NH2; SMILES NC(=O)CC[C@@H](NC(=O)CNC(=O)[C@@H](Cc1ccccc1)NC(=O)[C@@H](CC(=O)O)NC(=O)[C@@H](Cc1c[nH]c2ccccc12)NC(=O)[C@@H](Cc1c[nH]cn1)NC(=O)[C@H](N)CCC(=O)O)C(=O)N[C@H](Cc1c[nH]c2ccccc12)C(=O)N[C@H](Cc1c[nH]c2ccccc12)C(=O)N[C@H](CCC(N)=O)C(=O)N[C@H](CCC(N)=O)C(=O)N[C@H](CO)C(N)=O) [Mosd14]  56.526%
10. DLRFSSLWKLSH (H-[dD][dL][dR][dF][dS][dS][dL][dW][dK][dL][dS][dH]-NH2; SMILES CC(C)C[C@@H](NC(=O)[C@H](N)CC(=O)O)C(=O)N[C@H](CCCNC(=N)N)C(=O)N[C@H](Cc1ccccc1)C(=O)N[C@H](CO)C(=O)N[C@H](CO)C(=O)N[C@H](CC(C)C)C(=O)N[C@H](Cc1c[nH]c2ccccc12)C(=O)N[C@H](CCCCN)C(=O)N[C@H](CC(C)C)C(=O)N[C@H](CO)C(=O)N[C@H](Cc1c[nH]cn1)C(N)=O) [Mosd19]  50.299%
11. DRSKGDHRITQM (H-[dD][dR][dS][dK]G[dD][dH][dR][dI][dT][dQ][dM]-NH2; SMILES CC[C@@H](C)[C@@H](NC(=O)[C@@H](CCCNC(=N)N)NC(=O)[C@@H](Cc1c[nH]cn1)NC(=O)[C@@H](CC(=O)O)NC(=O)CNC(=O)[C@@H](CCCCN)NC(=O)[C@@H](CO)NC(=O)[C@@H](CCCNC(=N)N)NC(=O)[C@H](N)CC(=O)O)C(=O)N[C@@H](C(=O)N[C@H](CCC(N)=O)C(=O)N[C@H](CCSC)C(N)=O)[C@H](C)O) [Mosd18]  49.181%
12. FSWSMVMPWPTA (H-[dF][dS][dW][dS][dM][dV][dM][dP][dW][dP][dT][dA]-NH2; SMILES CSCC[C@@H](NC(=O)[C@@H](CO)NC(=O)[C@@H](Cc1c[nH]c2ccccc12)NC(=O)[C@@H](CO)NC(=O)[C@H](N)Cc1ccccc1)C(=O)N[C@@H](C(=O)N[C@H](CCSC)C(=O)N1CCC[C@@H]1C(=O)N[C@H](Cc1c[nH]c2ccccc12)C(=O)N1CCC[C@@H]1C(=O)N[C@@H](C(=O)N[C@H](C)C(N)=O)[C@H](C)O)C(C)C) [Mosd21]  46.030%
13. VHWDFRQWWQPS (H-[dV][dH][dW][dD][dF][dR][dQ][dW][dW][dQ][dP][dS]-NH2; SMILES CC(C)[C@@H](N)C(=O)N[C@H](Cc1c[nH]cn1)C(=O)N[C@H](Cc1c[nH]c2ccccc12)C(=O)N[C@H](CC(=O)O)C(=O)N[C@H](Cc1ccccc1)C(=O)N[C@H](CCCNC(=N)N)C(=O)N[C@H](CCC(N)=O)C(=O)N[C@H](Cc1c[nH]c2ccccc12)C(=O)N[C@H](Cc1c[nH]c2ccccc12)C(=O)N[C@H](CCC(N)=O)C(=O)N1CCC[C@@H]1C(=O)N[C@H](CO)C(N)=O) [Mosd20]  45.718%
